Experimental data reported in patent publication US20160348147A1, “SYSTEMS AND DEVICES FOR PROTEASE DETECTION BASED ON ENGINEERED POLYMERS AND BIOPOLYMERS AND METHODS OF USE” (DUKE UNIVERSITY, priority 2014, published 2016).
Several values for one entry are separate records, joined by “and”; a condition that tells them apart may be missing. Equal entries are not always repeated.

Columns and labels:
[1] = target: T1, MMP-1 (Homo sapiens, UniProt P03956); test: Mass spectrometry of ELP-substrate fusion before and after incubation with MMP-1; assay type: biochemical; settings: 100 μM polypeptide, 100 ng/mL MMP-1, 2 h at 25° C., proteolysis buffer
T1 construct: Human MMP-1 catalytic domain (recombinant, produced in E. coli, 19.9 kDa, >95% purity); purchased Enzo Life Sciences (Farmingdale, N.Y.); host or cells: E. coli
T1 sequence (P03956 100-269 limits assumed): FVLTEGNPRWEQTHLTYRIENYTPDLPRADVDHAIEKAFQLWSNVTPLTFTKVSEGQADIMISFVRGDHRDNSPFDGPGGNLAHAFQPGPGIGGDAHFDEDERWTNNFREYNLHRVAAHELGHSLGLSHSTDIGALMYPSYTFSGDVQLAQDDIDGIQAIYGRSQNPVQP
Method: (§1) We confirmed the purity and molecular weight of the purified peptides by electrophoresis (10-20% gradient […] SDS-PAGE, Thermo Scientific, CA) and by matrix-assisted laser desorption/ionization mass spectrometry. Mass spectrometry samples were prepared by mixing the enzymatic reaction product with sinapinic acid in 1:10 ratio. 1 μL of the sample/matrix mixture was then loaded on the grid and the measurements were performed on a Voyager-DE-Pro instrument (Applied Biosystems, Germany). To determine the concentration of the ELP-substrate fusion solutions we used a calculated extinction coefficient (Gill, S. C. & Vonhippel, P. H. Analytical Biochemistry 1989, 182, 319-326) or lyophilized the polypeptide solution. We studied the thermal behavior of the ELP-substrate fusion constructs in both proteolysis buffer (see below) and diluted human serum in the presence and absence of MMP-1 using optical turbidimetry on a temperature-programmed UV-vis spectrometer (Cary 300, Agilent Technologies). To characterize the size of the micelles and aggregates, we used single angle dynamic light scattering (DLS; DynaPro, Protein Solution).
We used mass spectrometry to examine the cleavage of the MMP-1 substrate peptide in the ELP-substrate fusion by measuring the molecular weight of the polypeptides prior to, and after incubation with MMP-1. […]

[2] = target: T1, MMP-1; test: Thermal behavior (OD350, DLS) after incubation with MMP-1; assay type: biochemical; settings: MMP-1 100 ng/mL, 12 h at 40° C.
Method: We performed the proteolysis reactions either in 100% protease buffer or in a mixture of human serum and buffer (40% (v/v) serum, 50% (v/v) buffer, 10% (v/v) ELP-substrate solution in water). The proteolysis buffer (100 mM HEPES, CaCl2 20 mM, MgCl2 1.0 mM, ZnCl2 100 μM, NaCl 0.5 M for diluted serum and 0.1 M for buffer solutions) was made experimentally in our lab based on previously published assays (Patterson, J. & Hubbell, J. A. Biomaterials 2010, 31, 7836-7845; Turk, B. E. et al., Nature Biotechnology 2001, 19, 661-667; Lowe, S. B. et al., Acs Nano 2012, 6, 851-857). We investigated proteolysis in two ways. In the first approach, we incubated solutions of the ELP-substrate fusion with MMP-1 (100 ng/mL) for 12 h at 40° C. temperature and measured the optical density at 350 nm (OD350) before and after the incubation. In the second approach, we incubated the ELP-substrate fusion with varying concentrations of MMP-1 (0.02 ng/mL to 200 ng/mL) in buffer or in diluted human serum, at 40° C. or 37° C. respectively, a temperature that is above the CMT of the ELP, and monitored the changes OD350 as a function of time (kinetic study). For the kinetic studies, we added the enzyme to the solution after the optical density of the solution reached a steady-state value and repeated the experiments at least three times. […]

[3] = target: T2, Human MMP-1 catalytic domain (Homo sapiens, UniProt P03956); test: Time-dependent aggregation (OD350) of ELP-substrate fusion with MMP-1 in proteolysis buffer; assay type: biochemical; settings: 50 ng/mL MMP-1, without the inhibitor, proteolysis buffer, 40° C., 100 μM
T2 construct: Human MMP-1 catalytic domain (recombinant, produced in E. coli, 19.9 kDa, >95% purity); purchased Enzo Life Sciences (Farmingdale, N.Y.); host or cells: E. coli
T2 sequence (P03956 100-269 limits assumed): T1 sequence (P03956 100-269 limits assumed)

[4] = Thermal behavior by optical turbidimetry and dynamic light scattering; assay type: physicochemical; settings: 100 μM in buffer
Method: as §1
FIG. 2 presents optical densities at 350 nm (OD350) and hydrodynamic diameters of ELP-substrate fusion as a function of temperature prior to, and after, enzymatic reaction. […] These changes are consistent with the self-assembly of ELP-substrate fusions (unimers) into micelles as the temperature is raised above the CMT (Ghoorchian, A. et al., The Journal of Physical Chemistry. B 2013, 117, 8865-8874). We note that there is a slight local maximum in both the optical density and hydrodynamic diameter at temperatures slightly above the CMT, which has been observed previously (Hassouneh, W., Duke University, PhD thesis, 2013); the origin of this small peak is, as yet, unclear.

[5] = DLS, prior to enzymatic reaction

Substance: M(GVGVP)60GDGQVPMSMRGGDDEGQQDDEEGY (MGVGVPGDGQVPMSMRGGDDEGQQDDEEGY) [ELP-substrate fusion, recombinant polypeptide: ELP fused to MMP-1 substrate and charged hydrophilic peptide]
- cleavage of the MMP-1 substrate peptide (mass spectrometry) [1]: most of the 1.8 kDa MMP-sensitive peptide is cleaved off
- temperature above which large aggregates form after incubation with MMP-1 ([2]; 100 μM): ≈ 37 °C
- particle diameter after incubation with MMP-1 ([2]; DLS at 38° C.): over a micron
- aggregation time [3]: less than 50 min
- critical micellization temperature (CMT) ([4]; prior to enzymatic reaction): ≈ 38 °C and 38 °C
- hydrodynamic diameter above Tt [4, 5]: ≈ 50 nm
- hydrodynamic diameter below the CMT [4, 5]: < 10 nm
- increase of OD350 as the solution is heated through the CMT ([4]; before enzymatic reaction): about 0.2 OD units
